The values that follow come from the supplement of paper PMC9112550, “Optimization of the antimicrobial peptide Bac7 by deep mutational scanning” (BMC Biology, 2022).

For the series, the system named is Escherichia coli TOP10. Put plainly: shrunken log2 fold change of peptide-encoding DNA abundance (4.5 h post-induction vs induction); higher = less antimicrobial activity (less host growth inhibition). Particulars: time post-induction: 4.5 h; library: site-saturation at positions 5, 18, 19, 20.
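Further: peptides expressed intracellularly from a pBAD plasmid library in pooled LB shake-flask culture, induced with 0.3% L-arabinose, DNA abundance read by NGS, three biological replicates, DESeq2 with apeglm shrinkage.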

Take RRIRSRPPRLPRPRPRPGRVPRP: the “shrunken log2 fold change” value was 0.162.
Consider RRIRNRPPRLPRPRPRPEPRPRP, for which the “shrunken log2 fold change” value is 0.635.
In the case of RRIRQRPPRLPRPRPRPPKHPRP, the “shrunken log2 fold change” value is -0.142.
Under RRIRRRPPRLPRPRPRPYPCPRP stands 0.253; under RRIRKRPPRLPRPRPRPMPRPRP, 0.276.
Turning to RRIRIRPPRLPRPRPRPPQNPRP, the “shrunken log2 fold change” value was -0.33.
Take RRIRDRPPRLPRPRPRPFYLPRP: the “shrunken log2 fold change” value was -0.085.
RRIRVRPPRLPRPRPRPVMPPRP: the “shrunken log2 fold change” value is -0.0577.
Under RRIRLRPPRLPRPRPRPTSQPRP stands -0.145; under RRIRLRPPRLPRPRPRPHFPPRP, 2.38; under RRIRRRPPRLPRPRPRPTQNPRP, 1.03.
Regarding RRIRLRPPRLPRPRPRPRHEPRP, the “shrunken log2 fold change” value stood at 0.055.
Under RRIRHRPPRLPRPRPRPKDGPRP stands 0.326.
Under RRIRIRPPRLPRPRPRPCFDPRP stands -0.493.
As to RRIRGRPPRLPRPRPRPVWIPRP, the “shrunken log2 fold change” value amounted to 0.276.
The figure for RRIRNRPPRLPRPRPRPMDHPRP is 0.0184; for RRIRPRPPRLPRPRPRPKYFPRP it is -0.693; for RRIRHRPPRLPRPRPRPQCWPRP it is -0.112.
Consider RRIRARPPRLPRPRPRPMKKPRP, for which the “shrunken log2 fold change” value turned out to be 0.143.
Regarding RRIRWRPPRLPRPRPRPNTCPRP, the “shrunken log2 fold change” value is -0.777.
For the sequence RRIRLRPPRLPRPRPRPQTMPRP, the “shrunken log2 fold change” value was -0.0345.
The figure for RRIRWRPPRLPRPRPRPFHKPRP is -0.28; for RRIRFRPPRLPRPRPRPQIQPRP it is -0.42; for RRIRNRPPRLPRPRPRPRYVPRP it is -0.265.
On to RRIRERPPRLPRPRPRPYYPPRP, for which the “shrunken log2 fold change” value was -0.14.
Under RRIRHRPPRLPRPRPRPHCTPRP stands -0.0731; under RRIRIRPPRLPRPRPRPQMPPRP, -0.662.
On to RRIRYRPPRLPRPRPRPKFKPRP, for which the “shrunken log2 fold change” value was -0.319.
Under RRIRKRPPRLPRPRPRPQLQPRP stands 0.199.
Under RRIRVRPPRLPRPRPRPWTCPRP stands -0.0943.
The figure for RRIRPRPPRLPRPRPRPKDYPRP is -0.0674; for RRIRFRPPRLPRPRPRPCSLPRP it is -0.122; for RRIRSRPPRLPRPRPRPYPPPRP it is -0.377.
Consider RRIRCRPPRLPRPRPRPRLAPRP, for which the “shrunken log2 fold change” value came to 0.559.
Under RRIRRRPPRLPRPRPRPEVFPRP stands 0.0496.
On to RRIRGRPPRLPRPRPRPFTNPRP, for which the “shrunken log2 fold change” value came out at 0.0545.
The figure for RRIRGRPPRLPRPRPRPSKRPRP is 0.231.
The figure for RRIRTRPPRLPRPRPRPAQCPRP is 0.18; for RRIRVRPPRLPRPRPRPEEIPRP it is -0.0172; for RRIRPRPPRLPRPRPRPYLAPRP it is -0.528.
Under RRIRGRPPRLPRPRPRPLLWPRP stands 0.896; under RRIRMRPPRLPRPRPRPNVAPRP, 0.099.
In the case of RRIRCRPPRLPRPRPRPMFDPRP, the “shrunken log2 fold change” value is -0.246.
Under RRIRARPPRLPRPRPRPQIQPRP stands 0.503; under RRIRERPPRLPRPRPRPGRAPRP, 0.367; under RRIRTRPPRLPRPRPRPRSGPRP, 0.284.
The figure for RRIRLRPPRLPRPRPRPPICPRP is -0.0611.
In the case of RRIRWRPPRLPRPRPRPGYMPRP, the “shrunken log2 fold change” value is -0.288.
Under RRIRYRPPRLPRPRPRPRRPPRP stands -0.0739.
As to RRIRDRPPRLPRPRPRPAYSPRP, the “shrunken log2 fold change” value came to 0.0295.
Under RRIRHRPPRLPRPRPRPKQTPRP stands 0.179; under RRIRIRPPRLPRPRPRPWIRPRP, -0.156.
Take RRIRFRPPRLPRPRPRPVIQPRP: the “shrunken log2 fold change” value is -0.414.
Under RRIRDRPPRLPRPRPRPHGRPRP stands 0.0088; under RRIRIRPPRLPRPRPRPLHPPRP, -0.0764; under RRIRLRPPRLPRPRPRPWTQPRP, 0.13.
As to RRIRIRPPRLPRPRPRPCSAPRP, the “shrunken log2 fold change” value is -0.392.
Take RRIRMRPPRLPRPRPRPQGTPRP: the “shrunken log2 fold change” value was -0.000856.
Under RRIRYRPPRLPRPRPRPPPYPRP stands -0.0871; under RRIRRRPPRLPRPRPRPLMHPRP, 0.292.
On to RRIRRRPPRLPRPRPRPDRFPRP, for which the “shrunken log2 fold change” value turned out to be 0.394.
Under RRIRSRPPRLPRPRPRPNDEPRP stands -0.276; under RRIRHRPPRLPRPRPRPWLMPRP, -0.12.
Turning to RRIRKRPPRLPRPRPRPMGPPRP, the “shrunken log2 fold change” value worked out at 0.339.
The figure for RRIRFRPPRLPRPRPRPWSLPRP is -0.529; for RRIRHRPPRLPRPRPRPFVGPRP it is -0.31; for RRIRTRPPRLPRPRPRPRRFPRP it is -0.115.
Regarding RRIRIRPPRLPRPRPRPTANPRP, the “shrunken log2 fold change” value was -0.149.
Under RRIRGRPPRLPRPRPRPPYWPRP stands 0.355; under RRIRGRPPRLPRPRPRPNMIPRP, 0.0819.
For the sequence RRIRYRPPRLPRPRPRPQQWPRP, the “shrunken log2 fold change” value stood at 0.155.
For RRIRHRPPRLPRPRPRPYKQPRP, the “shrunken log2 fold change” value is -0.0238.
Under RRIRMRPPRLPRPRPRPFPMPRP stands 0.237.
As for RRIRHRPPRLPRPRPRPMSSPRP, the “shrunken log2 fold change” value was -0.225.
Under RRIRRRPPRLPRPRPRPSCWPRP stands 0.285.
As for RRIRQRPPRLPRPRPRPCYHPRP, the “shrunken log2 fold change” value is -0.947.
The figure for RRIRWRPPRLPRPRPRPDQCPRP is 0.25.
Take RRIRERPPRLPRPRPRPQFLPRP: the “shrunken log2 fold change” value was -0.571.
The figure for RRIRWRPPRLPRPRPRPGYAPRP is 0.38.
On to RRIRPRPPRLPRPRPRPKPNPRP, for which the “shrunken log2 fold change” value was 0.356.
With RRIRWRPPRLPRPRPRPCMHPRP, the “shrunken log2 fold change” value is -0.0533.
The figure for RRIRHRPPRLPRPRPRPDFHPRP is -0.769; for RRIRDRPPRLPRPRPRPFLGPRP it is -0.0161.
For RRIRARPPRLPRPRPRPVGLPRP, the “shrunken log2 fold change” value stood at 0.321.
Consider RRIRTRPPRLPRPRPRPCQVPRP, for which the “shrunken log2 fold change” value was -0.304.
As to RRIRIRPPRLPRPRPRPDLSPRP, the “shrunken log2 fold change” value is -0.000521.
RRIRHRPPRLPRPRPRPAFNPRP: the “shrunken log2 fold change” value was -0.313.
Under RRIRKRPPRLPRPRPRPCQTPRP stands 0.233.
For RRIRMRPPRLPRPRPRPTRNPRP, the “shrunken log2 fold change” value is 0.212.
The figure for RRIRPRPPRLPRPRPRPCKYPRP is -0.499; for RRIRGRPPRLPRPRPRPSPTPRP it is 0.828; for RRIRDRPPRLPRPRPRPQMRPRP it is -0.0122.
The figure for RRIRYRPPRLPRPRPRPEVPPRP is -0.0684; for RRIRCRPPRLPRPRPRPICNPRP it is -0.579.
As to RRIRWRPPRLPRPRPRPLSRPRP, the “shrunken log2 fold change” value was found to be 0.141.
The figure for RRIRGRPPRLPRPRPRPIRHPRP is 0.0519.
RRIRNRPPRLPRPRPRPQQDPRP: the “shrunken log2 fold change” value was -0.38.
RRIRWRPPRLPRPRPRPQEAPRP: the “shrunken log2 fold change” value was -0.00482.
The figure for RRIRARPPRLPRPRPRPVVIPRP is 0.206; for RRIRVRPPRLPRPRPRPTWHPRP it is 0.384; for RRIRTRPPRLPRPRPRPHLEPRP it is -0.0891.
For RRIRERPPRLPRPRPRPLNQPRP, the “shrunken log2 fold change” value is -0.547.
The figure for RRIRLRPPRLPRPRPRPVQHPRP is -0.0767.
Under RRIRRRPPRLPRPRPRPHCGPRP stands -0.0836.
The figure for RRIRQRPPRLPRPRPRPRTQPRP is 0.0198; for RRIRHRPPRLPRPRPRPCFYPRP it is -0.356; for RRIRLRPPRLPRPRPRPKCDPRP it is -0.461.
For the sequence RRIRYRPPRLPRPRPRPYRLPRP, the “shrunken log2 fold change” value was -0.173.
Under RRIRNRPPRLPRPRPRPVSTPRP stands -0.272.
The figure for RRIRPRPPRLPRPRPRPGMKPRP is -0.257; for RRIRHRPPRLPRPRPRPGLCPRP it is 0.101.
The figure for RRIRQRPPRLPRPRPRPRFFPRP is 0.0926.
Take RRIRQRPPRLPRPRPRPKKCPRP: the “shrunken log2 fold change” value was -0.0485.
The figure for RRIRRRPPRLPRPRPRPIEFPRP is -0.0597; for RRIRNRPPRLPRPRPRPNQDPRP it is -0.251; for RRIRERPPRLPRPRPRPPPIPRP it is 0.267.
Under RRIRDRPPRLPRPRPRPAWPPRP stands 0.815.
Under RRIRFRPPRLPRPRPRPKRWPRP stands 0.0556; under RRIRGRPPRLPRPRPRPRNKPRP, 0.765.
As to RRIRVRPPRLPRPRPRPSTTPRP, the “shrunken log2 fold change” value is -0.0817.
As to RRIRNRPPRLPRPRPRPHFKPRP, the “shrunken log2 fold change” value is -0.52.
The figure for RRIRHRPPRLPRPRPRPVVTPRP is -0.0256; for RRIRPRPPRLPRPRPRPLNWPRP it is 0.0566.
The figure for RRIRQRPPRLPRPRPRPGENPRP is -0.0193.
Under RRIRIRPPRLPRPRPRPGADPRP stands -0.193.
